Data published in patent US20250082755A1.

Biological target: CD123 expressed on MOLM13 AML cells (UniProt P26951)
Assay: cell-based or functional assay

Chain of UniProt P26951 (P26951 19-378 limits assumed): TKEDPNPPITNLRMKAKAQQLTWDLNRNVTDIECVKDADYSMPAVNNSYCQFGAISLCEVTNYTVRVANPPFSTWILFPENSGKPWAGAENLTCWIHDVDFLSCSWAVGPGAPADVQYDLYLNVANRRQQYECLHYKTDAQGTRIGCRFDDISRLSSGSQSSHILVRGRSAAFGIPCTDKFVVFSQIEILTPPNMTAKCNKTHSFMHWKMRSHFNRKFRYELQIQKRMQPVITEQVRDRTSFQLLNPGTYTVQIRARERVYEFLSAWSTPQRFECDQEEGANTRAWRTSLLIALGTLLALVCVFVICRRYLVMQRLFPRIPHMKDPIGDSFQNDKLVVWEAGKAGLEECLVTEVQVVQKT

IL3-WT-41BBcostim (SEQ ID NO: 25) (receptor)
CD69 activation, Average MOLM13-WT fold change over MOLM-CD123KO: 3.84 fold | CD69 activation, MOLM13 fold change over MOLM-CD123KO, Replicate 1: 4.74 fold | CD69 activation, MOLM13 fold change over MOLM-CD123KO, Replicate 2: 2.94 fold | TIB153 % CD69 activation: MOLM-13-WT/MOLM-13 CD123KO: 4.74

IL3-K110E-CD28costim (SEQ ID NO: 29) (receptor)
TIB153 % CD69 activation: MOLM-13-WT/MOLM-13 CD123KO: 1.03

IL3-K110E-nocostim (SEQ ID NO: 27) (receptor)
TIB153 % CD69 activation: MOLM-13-WT/MOLM-13 CD123KO: 1.06

IL3-K110E-41BBcostim (receptor)
TIB153 % CD69 activation: MOLM-13-WT/MOLM-13 CD123KO: 1.28
